Data from paper PMC7687109, “Effect of structural stability on endolysosomal degradation and T‐cell reactivity of major shrimp allergen tropomyosin” (Allergy, 2020).

B1: Bla g 7 (German cockroach tropomyosin) (natural protein, Blattella germanica, UniProt Q9NG56 1-284, looked up)
chain: MDAIKKKMQAMKLEKDNAMDRALLCEQQARDANIRAEKAEEEARSLQKKIQQIENDLDQTMEQLMQVNAKLDEKDKALQNAESEVAALNRRIQLLEEDLERSEERLATATAKLAEASQAADESERARKILESKGLADEERMDALENQLKEARFMAEEADKKYDEVARKLAMVEADLERAEERAETGESKIVELEEELRVVGNNLKSLEVSEEKANLREEEYKQQIKTLNTRLKEAEARAEFAERSVQKLQKEVDRLEDELVHEKEKYKYICDDLDMTFTELIGN
B2: Ani s 3 (Anisakis tropomyosin) (natural protein, Anisakis simplex, UniProt Q9NAS5 1-284, looked up)
chain: MDAIKKKMQAMKIEKDNALDRADAAEEKVRQMTDKLERIEEELRDTQKKMMQTENDLDKAQEDLSTANSNLEEKEKKVQEAEAEVAALNRRMTLLEEELERAEERLKLATAKLEEATHTADESERVRKVMENRSFQDEERANTVESQLKEAQMLAEEADRKYDEVARKLTMVEADLERAEERAETGENKIVELEEELRVVGNNLKSLEVSEEKALQREDSYEEQIRTVSARLKEAETRAEFAERSVQKLQKEVDRLEDELVHEKERYKSISEELDQTFQELSGY
notes: also called fish parasite tropomyosin

Assays:
Test in all cases: SEC-MALS; purified recombinant tropomyosin, neutral pH (pH 7.4), constant temperature of 25°C; molar mass from the peaks
[1] = target: Der p 10 (house dust mite tropomyosin) (Dermatophagoides pteronyssinus)
[2] = target: Pen m 1 (black tiger shrimp tropomyosin) (Penaeus monodon)
[3] = target: the molecule itself

Row | Molecule | stoichiometry N [3] | other results
1 | Der p 10 (house dust mite tropomyosin) (natural protein) |  | stoichiometry N [1]: 2
2 | Pen m 1 (black tiger shrimp tropomyosin) (natural protein) |  | stoichiometry N [2]: 2
3 | B1 | 2 | 
4 | B2 | 2 | 
